Reference: the Human Domainome abundance scans (Beltran et al. 2025)
± gives the uncertainty stated by the source.

B1: Zinc finger homeobox protein 4, residues 2086 to 2141; numbered along this chain, Q86UP3 (parent)
chain: RPRTRITDDQLKILRAYFDINNSPSEEQIQEMAEKSGLSQKVIKHWFRNTLFKERQ

Variants of: B1
Assay: abundance fitness (aPCA) (normalised: wild type 0, dead -1); higher = more abundant; growth selection in yeast, the domain comes from the species named
Settings: Homo sapiens

In order of rising abundance fitness:
1. RPRTRITDDQLKILRAYFDINNSPSEEQIQEMAEKSGLSQKVIKHWFRPTLFKERQ [N49P]  -0.383 ± 0.11
2. RPRTRITDDQLKILRAYFDINNSPSEEQIQEMAEKSGLSQKVIKHWFYNTLFKERQ [R48Y]  -0.289 ± 0.14
3. RPRTRITDDQLKILRAYFDINNSPSEEQIQEMAEKSGLSQKVIKHWFRNTLFCERQ [K53C]  -0.201 ± 0.12
4. RPRTRITDDQLKILRAYFDINNSPSEEQIQEMAEKSGLSQKVIKHWFWNTLFKERQ [R48W]  -0.185 ± 0.084
5. RPRTRITDDQLKILRAYFDINNSPSEEQIQEMAEKSGLSQKVIKHWFRNTLWKERQ [F52W]  -0.174 ± 0.31
6. RPRTRITDDQLKILRAYFDINNSPSEEQIQEMAEKSGLSQKVIKHWFRLTLFKERQ [N49L]  -0.172 ± 0.07
7. RPRTRITDDQLKILRAYFDINNSPSEEQIQEMAEKSGLSQKVIKHWFRYTLFKERQ [N49Y]  -0.169 ± 0.13
8. RPRTRITDDQLKILRAYFDINNSPSEEQIQEMAEKSGLSQKVIKHWFRNTLFVERQ [K53V]  -0.157 ± 0.091
9. RPRTRITDDQLKILRAYFDINNSPSEEQIQEMAEKSGLSQKVIKHWFRQTLFKERQ [N49Q]  -0.155 ± 0.11
10. RPRTRITDDQLKILRAYFDINNSPSEEQIQEMAEKSGLSQKVIKHWFRNTLFWERQ [K53W]  -0.131 ± 0.093
11. RPRTRITDDQLKILRAYFDINNSPSEEQIQEMAEKSGLSQKVIKHWFRNTLMKERQ [F52M]  -0.131 ± 0.19
12. RPRTRITDDQLKILRAYFDINNSPSEEQIQEMAEKSGLSQKVIKHWFRWTLFKERQ [N49W]  -0.12 ± 0.1
13. RPRTRITDDQLKILRAYFDINNSPSEEQIQEMAEKSGLSQKVIKHWFRNTLFMERQ [K53M]  -0.114 ± 0.13
14. RPRTRITDDQLKILRAYFDINNSPSEEQIQEMAEKSGLSQKVIKHWFVNTLFKERQ [R48V]  -0.111 ± 0.079
15. RPRTRITDDQLKILRAYFDINNSPSEEQIQEMAEKSGLSQKVIKHWFRNTLDKERQ [F52D]  -0.085 ± 0.24
16. RPRTRITDDQLKILRAYFDINNSPSEEQIQEMAEKSGLSQKVIKHWFRNTLFQERQ [K53Q]  -0.072 ± 0.12
17. RPRTRITDDQLKILRAYFDINNSPSEEQIQEMAEKSGLSQKVIKHWFRNTLFGERQ [K53G]  -0.071 ± 0.074
18. RPRTRITDDQLKILRAYFDINNSPSEEQIQEMAEKSGLSQKVIKHWFRNTLSKERQ [F52S]  -0.067 ± 0.12
19. RPRTRITDDQLKILRAYFDINNSPSEEQIQEMAEKSGLSQKVIKHWFRNTLFYERQ [K53Y]  -0.064 ± 0.17
20. RPRTRITDDQLKILRAYFDINNSPSEEQIQEMAEKSGLSQKVIKHWFRNTLFTERQ [K53T]  -0.042 ± 0.12
21. RPRTRITDDQLKILRAYFDINNSPSEEQIQEMAEKSGLSQKVIKHWFRNTLFDERQ [K53D]  -0.041 ± 0.16
22. RPRTRITDDQLKILRAYFDINNSPSEEQIQEMAEKSGLSQKVIKHWFRNTLAKERQ [F52A]  -0.029 ± 0.15
23. RPRTRITDDQLKILRAYFDINNSPSEEQIQEMAEKSGLSQKVIKHWFRATLFKERQ [N49A]  -0.023 ± 0.075
24. RPRTRITDDQLKILRAYFDINNSPSEEQIQEMAEKSGLSQKVIKHWFRSTLFKERQ [N49S]  -0.022 ± 0.078
25. RPRTRITDDQLKILRAYFDINNSPSEEQIQEMAEKSGLSQKVIKHWFRNTLYKERQ [F52Y]  -0.02 ± 0.17
26. RPRTRITDDQLKILRAYFDINNSPSEEQIQEMAEKSGLSQKVIKHWFRRTLFKERQ [N49R]  -0.009 ± 0.077
27. RPRTRITDDQLKILRAYFDINNSPSEEQIQEMAEKSGLSQKVIKHWFRNTLLKERQ [F52L]  -0.005 ± 0.094
28. RPRTRITDDQLKILRAYFDINNSPSEEQIQEMAEKSGLSQKVIKHWFRNTLQKERQ [F52Q]  0.006 ± 0.24
29. RPRTRITDDQLKILRAYFDINNSPSEEQIQEMAEKSGLSQKVIKHWFRNTLIKERQ [F52I]  0.014 ± 0.14
30. RPRTRITDDQLKILRAYFDINNSPSEEQIQEMAEKSGLSQKVIKHWFRNTLHKERQ [F52H]  0.018 ± 0.15
31. RPRTRITDDQLKILRAYFDINNSPSEEQIQEMAEKSGLSQKVIKHWFRITLFKERQ [N49I]  0.019 ± 0.12
32. RPRTRITDDQLKILRAYFDINNSPSEEQIQEMAEKSGLSQKVIKHWFRNTLFHERQ [K53H]  0.023 ± 0.13
33. RPRTRITDDQLKILRAYFDINNSPSEEQIQEMAEKSGLSQKVIKHWFRTTLFKERQ [N49T]  0.025 ± 0.089
34. RPRTRITDDQLKILRAYFDINNSPSEEQIQEMAEKSGLSQKVIKHWFRNTLGKERQ [F52G]  0.035 ± 0.17
35. RPRTRITDDQLKILRAYFDINNSPSEEQIQEMAEKSGLSQKVIKHWFRNTLTKERQ [F52T]  0.052 ± 0.11
36. RPRTRITDDQLKILRAYFDINNSPSEEQIQEMAEKSGLSQKVIKHWFRNTLFLERQ [K53L]  0.06 ± 0.084
37. RPRTRITDDQLKILRAYFDINNSPSEEQIQEMAEKSGLSQKVIKHWFRNTLVKERQ [F52V]  0.062 ± 0.17
38. RPRTRITDDQLKILRAYFDINNSPSEEQIQEMAEKSGLSQKVIKHWFRNTLKKERQ [F52K]  0.068 ± 0.19
39. RPRTRITDDQLKILRAYFDINNSPSEEQIQEMAEKSGLSQKVIKHWFRETLFKERQ [N49E]  0.079 ± 0.091
40. RPRTRITDDQLKILRAYFDINNSPSEEQIQEMAEKSGLSQKVIKHWFRDTLFKERQ [N49D]  0.085 ± 0.1
41. RPRTRITDDQLKILRAYFDINNSPSEEQIQEMAEKSGLSQKVIKHWFTNTLFKERQ [R48T]  0.1 ± 0.1
42. RPRTRITDDQLKILRAYFDINNSPSEEQIQEMAEKSGLSQKVIKHWFRKTLFKERQ [N49K]  0.123 ± 0.11
43. RPRTRITDDQLKILRAYFDINNSPSEEQIQEMAEKSGLSQKVIKHWFRNTLCKERQ [F52C]  0.13 ± 0.16
44. RPRTRITDDQLKILRAYFDINNSPSEEQIQEMAEKSGLSQKVIKHWFRNTLNKERQ [F52N]  0.134 ± 0.15
45. RPRTRITDDQLKILRAYFDINNSPSEEQIQEMAEKSGLSQKVIKHWFRNTLFIERQ [K53I]  0.141 ± 0.17
46. RPRTRITDDQLKILRAYFDINNSPSEEQIQEMAEKSGLSQKVIKHWFRHTLFKERQ [N49H]  0.141 ± 0.1
47. RPRTRITDDQLKILRAYFDINNSPSEEQIQEMAEKSGLSQKVIKHWFRNTLRKERQ [F52R]  0.184 ± 0.13
